In the DeepSol protein solubility set:

Assay: soluble on expression in E. coli; label from the status in PepcDB or PDB records

| Sequence | soluble on expression in E. coli |
| --- | --- |
| MGSSHHHHHHSSGLVPRGSHMRKVKIGELINSLVSEVEAIDASDRPQGDKTKKIKAAALKYKNALFNDKRKFRGKGLEKRISANTFNSYMSRARKRFDDRLHHNFEKNVIKLSEKYPLYSEELSSWLSMPAASIRQHMSRLQAKLKEIMPLAEDLSNIKIGTKNSEAKINKLANKYPEWQFAISDLNSEDWKDKRDYLYKLFQQGSSLLEDLNNLKVNHEVLYHLQLSSAERTSIQQRWANVLSEKKRNVVVIDYPRYMQAIYDIINKPIVSFDLTTRRGMAPLAFALAALSGRRMIEIMLQGEFSVAGKYTVTFLGQAKKRSEDKGISRKIYTLCDATLFVSLVNELRSCPAAADFDEVIKGYGENDTRSENGRINAILATAFNPWVKTFLGDDRRVYKDSRAIYARIAYEMFFRVDPRWKNVDEDVFFMEILGHDDENTQLHYKQFKLANFSRTWRPNVGEENARLAALQKLDSMMPDFARGDAGVRIHETVKQLVEQDPSIKITNSTLRPFNFSTRLIPRYLEFAADALGQFVGENGQWQLKDEAPAIVLPDEEI | soluble |
| MGESFTQAVVEGPQPKPSRFQFVPVPGEFTRGRWKCRDSYHPNAETLEFEKNKSKEEETNPDKISVFFKLRQQQQEPEPEPEPPQPPPQESTIQVTSVKSTRPDTGDPGDSEVVTTDSTESIIITRKNGVTIVRKTSNSLLLPDEKYDQIRQLSIDDFENKEKKQQVPPTPMNTPPASLAVVDTSIQSTTSETTPGHSSSRKPSKEDSSPFDASSATPAPSQLETPQQQKPTTTRHFQVEPVVLSEPSTPAPVAPAPSIETLTSTSPPVTQQLAPSLSEPTFQVIQTEESKNMSMDSVKNVVDAAALSAPAPAPLSQSDRLNHVDEVEGTTPSNVMITVSSAAAALEKKEEAAFAAAGSLDSCGIPISGGGAAAQTSAPHSTPYGTPKDTHIQQQQQPVVFEEILTANGPPPQPSSPLLPALITTTTSAPTIAPASSPIINASGSSIPAASTSGISLFPSGGVTSSLTTPSTTADTHTPIDNKIEQAMELVKTHLTYAVREEVDTLRNTIAELEYQMRESQYECTYYRQNCAPDLIEQASSFVHQQMASHQRPAARRAVSTAGIFDGSSSGGGGGQASSGASASASSAHMRNLQNQIQQMKQITPITTNTCINSTSTSTTAYTSTPTASIPAATAITTTTAPPKPSPTTSESSLITGDLGAPAGAVAQKMTTTNN | not soluble |
| MEVPVHPLSQDPTAAWREISKTQRVIKVTMKPPTTTVAPNKARVVCMSDTHSLTPYIKFDIPDGDIFIHAGDFTKCGQLEEVEEFNTWIGALPHRHKIVIAGNHELSFDRTFTHPFQKSKSHASSSKHTGMSILDDLPTLGNAKENLESAVQTQNVRDVLTNCRYLEDELLEIWGIQIYGSPWQPEFCRWAFNVPRGTACLDKWNQIPEGIDILVTHTPPVGHGDLCCSGVRAGCVELLSTVQQRVRPKYHVFGHVHEGYGITSDGRIIFVNASTCDINYLPNNAPIVFDVTLPPGFRKDLEHHHHHH | soluble |
| MHRASLICRLASPSRINAIRNASSGKSHISASTLVQHRNQSVAAAVKHEPFLNGSSSIYIEQMYEAWLQDPSSVHTSWDAYFRNVEAGAGPGQAFQAPPATAYAGALGVSPAAAQVTTSSAPATRLDTNASVQSISDHLKIQLLIRSYQTRGHNIADLDPLGINSADLDDTIPPELELSFYGLGERDLDREFLLPPTTFISEKKSLTLREILQRLKDIYCTSTGVEYMHLNNLEQQDWIRRRFEAPRVTELSHDQKKVLFKRLIRSTKFEEFLAKKWPSEKRFGLEGCEVLIPAMKQVIDSSSTLGVDSFVIGMPHRGRLNVLANVCRQPLATILSQFSTLEPADEGSGDVKYHLGVCIERLNRQSQKNVKIAVVANPSHLEAVDPVVMGKVRAEAFYAGDEKCDRTMAILLHGDAAFAGQGVVLETFNLDDLPSYTTHGAIHIVVNNQIGFTTDPRSSRSSPYCTDVGRVVGCPIFHVNVDDPEAVMHVCNVAADWRKTFKKDVIVDLVCYRRHGHNELDEPMFTQPLMYQRIKQTKTALEKYQEKILNEGVANEQYVKEELTKYGSILEDAYENAQKVTYVRNRDWLDSPWDDFFKKRDPLKLPSTGIEQENIEQIIGKFSQYPEGFNLHRGLERTLKGRQQMLKDNSLDWACGEALAFGSLLKEGIHVRLSGQDVQRGTFSHRHHVLHDQKVDQKIYNPLNDLSEGQGEYTVCNSSLSEYAVLGFELGYSMVDPNSLVIWEAQFGDFSNTAQCIIDQFISSGQSKWIRQSGLVMLLPHGYEGMGPEHSSARPERFLQMCNEDDEIDLEKIAFEGTFEAQQLHDTNWIVANCTTPANIYHLLRRQVTMPFRKPAVVFSPKSLLRHPMARSPVEDFQSGSNFQRVIPETGAPSQNPPDVKRVVFCTGKVYYDMVAARKHVGKENDVALVRVEQLSPFPYDLVQQECRKYQGAEILWAQEEHKNMGAWSFVQPRINSLLSIDGRATKYAGRLPSSSPATGNKFTHMQEQKEMMSKVFGVPKSKLEGFKA | not soluble |
